The text below walks through data of publication PMC12028538, “The Characterization of the Purine Nucleoside Phosphorylase from Agaricus bisporus and Its Potential Application in Reducing Purine Content in Beer” (Journal of Fungi, 2025).

Substrate in the series: OC[C@H]1O[C@@H](n2cnc3c(O)ncnc32)[C@H](O)[C@@H]1O
The series can be described thus: HPLC of hypoxanthine formed, Michaelis-Menten fit. In kind it is biochemical, Agaricus bisporus. The note with it: phosphorolysis, potassium phosphate co-substrate (50 mM in the standard assay), pH 7.0, 60 °C, 0–16 mM inosine, b52 prints the unit as µmol.

B1: AbPNP (Agaricus bisporus var. burnettii JB137-S8) (protein)
chain: MKTNILSTVEYIRSQLPPELQQPRVGIVCGSGLSGLAGIIQNIHTIPYANIPGFGTSTVPGHRSELAFGLLGKNGVPVVAMLGRFHFYEGHPLSTVVYPIRVMARLGITEILITNAAGSLNPDIPTGTIVVVHDHIAFPGMAGTNPLMGPQTSPEHPRFLALSDAYSPSLRRLLFLAAHQLSLSKSALAEGTYAWVSGPNYETPAEGILLRSIGVDVVGMSTVPEVLVAREEGLKVMVLSLVTNLVVIPPSYKSIREEVEAELAGQSFVTPEEQVVSHDEVLAVGKEKAEVIKSLVQRVVELLS
notes: N-terminal 6xHis tag; codon-optimized gene in pPIC9K, Pichia pastoris GS115, Ni-NTA purified
As a reminder, the Km is the concentration of substrate that gives half-maximal velocity. The kcat is the maximal rate divided by the concentration of active sites. With B1, the Km worked out at 7.10 µM and the kcat is 14.38 s⁻¹.
